{"source": "patent US9101618B2", "about": "“Method for treating and/or preventing neurodegenerative disease by adiponectin receptor agonist” (TOKYO METROPOLITAN INSTITUTE OF MEDICAL SCIENCE, priority 2011, dated 2015)", "assay_type_in_all_cases": "cell-based, rat", "key": {"[1]": {"tested_on": "B103 neuroblastoma cells (α (alpha)S)", "test": "Immunoprecipitation with anti-α-synuclein antibody, detection of phosphorylated tau (Ser 202)", "settings": "1 μg/mL, 24 hours, NP40 soluble fraction", "method": "Immunoprecipitation was performed by standard procedures known to those skilled in the art. Briefly, the B103 neuroblastoma cells (α (alpha)S) were inoculated on a 10 cm dish, and were cultured to a state of about 80-90% confluence. The cells were then washed with PBS, followed by being cultured in a test medium (adiponectin-added group) prepared by adding recombinant human adiponectin (1 μg/mL, trimer, PROSPEC) to a serum-free medium. As a control, there was used a control medium (adiponectin non-added group) prepared by adding thereto PBS instead of recombinant human adiponectin. After being cultured for 24 hours, the cells were then lysed with a NP40 lysis solution (1% IGEPAL CA630 (Sigma-Aldrich Japan Inc), 150 mM NaCl, 50 mM Tris-HCl (pH 8.0), a protease inhibitor (NACALAI TESQUE, INC.)). Supernatants were collected after performing centrifugation at 100,000×g for 30 min. The supernatants thus collected were used as NP40 soluble fractions when performing immunoprecipitation. Immunoprecipitation was performed using Immunoprecipitation Starter Pack (GE Healthcare Japan Corporation) in accordance with a manual provided by the manufacturer and vender. […]"}, "AMPK": {"tested_on": "AMPK", "test": "Adiponectin addition (2): signal transduction, phospho-AMPK western blotting", "settings": "1 μg/mL, 0, 10 and 30 min", "method": "(§1) The B103 neuroblastoma cells (α (alpha)S) and the B103 neuroblastoma cells (vector) were inoculated on a 5 cm dish and cultured to a state of about 80-90% confluence. Later, the aforementioned cells were washed with PBS, and then cultured in a serum-free medium for four hours. After washing with PBS, the cells were then cultured in a test medium (adiponectin-added group) prepared by adding recombinant human adiponectin (1_μg/mL, trimer, PROSPEC) to a serum-free medium. As a control, there was used a control medium (adiponectin non-added group) prepared by adding thereto PBS instead of recombinant human adiponectin. A culture time was 0, 10 and 30 min when evaluating signal transduction, 0, 1 and 2 hour(s) when evaluating tau phosphorylation. The cells collected were lysed with a cell lysis solution (1% TritonX-100, 1% Nonidet P-40, 50 mM HEPES, 150 mM NaCl, 10% glycerol, 1.5 mM MgCl2, 1 mM EGTA, 100_mM sodium fluoride, a protease inhibitor (NACALAI TESQUE, INC.)). Supernatants were collected after performing centrifugation at 100,000×g for 30 min, and were used as surfactant soluble fractions when performing western blotting. Here, western blotting was performed in accordance with the procedures described in example 1. […]"}, "tau": {"tested_on": "tau", "test": "Adiponectin addition (3): tau phosphorylation (western blotting)", "settings": "1 μg/mL, 0, 1 and 2 hour(s), B103 neuroblastoma cells (αS)", "method": "as §1"}, "B103 neuroblastoma cells": {"tested_on": "B103 neuroblastoma cells", "test": "Cytotoxicity due to the addition of adiponectin", "settings": "1 μg/mL", "method": "The B103 neuroblastoma cells (α (alpha)S) and the B103 neuroblastoma cells (vector) were prepared and cultured in accordance with the procedures described in example 3. The B103 neuroblastoma cells (α (alpha)S) and the B103 neuroblastoma cells (vector) were inoculated on the 6-well plate and cultured to a state of about 80-90% confluence. After washing with PBS, the aforementioned cells were further cultured for 24 hours in a test medium prepared by adding recombinant human adiponectin (1 μg/mL, trimer, PROSPEC) to a serum-free medium. As a control, there was used a control medium prepared by adding thereto PBS instead of recombinant human adiponectin. After culturing, there were prepared the TBS soluble fraction, the SDS soluble fraction and the formic acid soluble fraction in accordance with the procedures described in example 1. Further, western blotting was performed in accordance with the procedures described in example 1. In order to evaluate α (alpha)-synuclein aggregation, an anti-α (alpha)-synuclein mouse monoclonal antibody (syn-1, Nippon Becton Dickinson Company, Ltd) was used as a primary antibody when performing western blotting, the anti-α (alpha)-synuclein mouse monoclonal antibody being diluted appropriately before use. Additionally, an HRP labeled anti-mouse IgG antibody (DAKO) was used as a secondary antibody, the HRP labeled anti-mouse IgG antibody being diluted appropriately before use.\nThe B103 neuroblastoma cells (α (alpha)S) and the B103 neuroblastoma cells (vector) were inoculated on a 5 cm dish and cultured to a state of about 80-90% confluence. Later, the aforementioned cells were washed with PBS, and then cultured in a serum-free medium for four hours. After washing with PBS, the cells were then cultured in a test medium (adiponectin-added group) prepared by adding recombinant human adiponectin (1_μg/mL, trimer, PROSPEC) to a serum-free medium. As a control, there was used a control medium (adiponectin non-added group) prepared by adding thereto PBS instead of recombinant human adiponectin. […]"}}, "data": [{"molecule": "adiponectin: recombinant human adiponectin (trimer, PROSPEC) added to serum-free medium at 1 μg/mL (protein, UniProt Q15848 19-244, looked up) Adiponectin: ETTTQGPGVLLPLPKGACTGWMAGIPGHPGHNGAPGRDGRDGTPGEKGEKGDPGLIGPKGDIGETGVPGAEGPRGFPGIQGRKGEPGEGAYVYRSAFSVGLETYVTIPNMPIRFTKIFYNQQNHYDGSTGKFHCNIPGLYYFAYHITVYMKDVKVSLFKKDKAMLFTYDQYQENNVDQASGSVLLHLEVGDQVWLQVYGEGERNGLYADNDNDSTFTGFLLYHDTN", "values": [{"measurement": "coprecipitation of phosphorylated tau with α-synuclein", "setting": "[1]", "result": "did not coprecipitate"}, {"measurement": "phosphorylation of AMPK", "setting": "AMPK", "result": "promoted"}, {"measurement": "amount of phosphorylated tau (Ser 202, Ser 396)", "setting": "tau", "result": "decreased"}, {"measurement": "cytotoxicity", "setting": "B103 neuroblastoma cells; 24 hours (α-synuclein aggregation experiment)", "result": "not particularly observed"}, {"measurement": "cytotoxicity", "setting": "B103 neuroblastoma cells; signal transduction experiment", "result": "not particularly observed"}, {"measurement": "cytotoxicity", "setting": "B103 neuroblastoma cells; tau phosphorylation experiment", "result": "not particularly observed"}]}]}
